Source: patent US11110171B2, “PD-1 related cancer therapy” (New York University, priority 2017, dated 2021)

Target: T1, SHP2PTP (GST tagged SHP2 catalytic domain) (Homo sapiens, UniProt Q06124)
T1 construct: a fixed amount of purified GST-WT SHP2 catalytic domain (0.2 ug) was incubated with variable concentrations; purchased Abcam 42578
T1 sequence (Q06124 247-517 limits assumed): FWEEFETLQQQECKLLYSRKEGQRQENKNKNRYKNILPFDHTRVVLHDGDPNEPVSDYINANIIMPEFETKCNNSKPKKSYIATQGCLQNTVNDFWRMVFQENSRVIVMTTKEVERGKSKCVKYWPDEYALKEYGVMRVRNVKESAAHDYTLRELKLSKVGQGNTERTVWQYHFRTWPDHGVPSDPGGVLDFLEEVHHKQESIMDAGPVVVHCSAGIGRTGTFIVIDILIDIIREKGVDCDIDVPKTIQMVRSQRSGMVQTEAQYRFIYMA
Experiment: Malachite Green phosphatase assay of SHP2 catalytic domain with phosphotyrosyl peptide substrates
Format: biochemical
Details: for increase of Km of SHP2-mediated dephosphorylation in the presence of SAP: SAP 1 uM or 10 uM
Description: FIG. 4. SAP inhibits SHP2 activity. […] At this time, the cells were harvested, and analyzed by immunoblotting, as indicated. (b) Jurkat T cells, transfected with siRNA for SAP (SAP KD) and non-targeting control (Control), were treated with pervanadate to induce maximal phosphorylation, followed by five serial washes, lysis and diafiltration to remove the drug and to exchange the buffer to a phosphatase-compatible buffer. SHP2^PTP (GST tagged SHP2 catalytic domain) was then added to the cell lysates for one hour, at the indicated concentrations, followed by immunoblotting with anti-phosphotyrosine antibody (4G10). (c) Densitometry values of all the phophotyrosine containing proteins shown at b. All values are relative to the baseline condition (without SHP2^PTP). […] (e-g) Enzymatic activity of SHP2^PTP was measured using a Malachite Green assay, with p60-SRC (e), SLAMF5 Y279 (f), CD3 Y142 (g), CD28 Y172 (h), and CD28 Y190 (i) peptides as substrates. Substrate titrations of SHP2P (dark circles) at baseline (control), or in the presence of SAP 1 uM (white circles) or SAP 10 uM (crossed circles) are shown. Curves are fitted using the Michelis-Menten equation and derived Km values are shown. The data points represent the mean of three measurements. (j) A diagram describing the shielding model. Data are represented as mean±SEM. * or ** represent significant differences between the denoted group and the anti-CD3 treated cells in a, or between SAP deficient cells and control cells in e; * <0.05, ** P<0.01, n=4, unpaired t test.
First, SAP could bind SHP2 and directly block the SHP2 catalytic site, or alternatively, SAP might not bind to SHP2, but rather could bind to its substrates and thereby block the interaction between SHP2 and its enzymatic substrates. […] To test the effect of SAP on SHP2 mediated dephosphorylation events, we measured SHP2-mediated dephosphorylation of p60-SRC Y416 (FIG. 4e), SLAMF5 Y279 (FIG. 4f), and CD3 Y142 (FIG. 4g) phosphotyrosyl peptides by Malachite Green assays. […]
To determine kinetic parameters, a fixed amount of purified GST-WT SHP2 catalytic domain was incubated with variable concentrations of substrates in (GenScript) in PTP assay buffer (Phosphatase assay kit; Upstate 17-313). […] release was quantified by adding Malachite Green (Malachite Green phosphatase detection kit; R&D DY996).
293T cells were transfected with pMSCV-SHP2, pMSCV empty vector, PD1-WT-GFP, PD1-Y223F-GFP or PD1-Y248F-GFP for 48 hours, followed by pervanadate treatment and immunoprecipitation using anti-GFP mAb-Agarose. The anti-GFP mAb-Agarose beads that were used for immunoprecipitation were then used for a pull-down of the SHP2/null transfected cells, and phosphatase activity on the beads was assessed using pNPP (Sigma). […]

B1: SAP: Recombinant human SAP (His tagged), signaling lymphocytic activation molecule-associated protein, purchased from Abcam (protein, UniProt O60880 1-128, looked up)
SH2 domain-containing protein …: MDAVAVYHGKISRETGEKLLLATGLDGSYLLRDSESVPGVYCLCVLYHGYIYTYRVSQTETGSWSAETAPGVHKRYFRKIKNLISAFQKPDQGIVIPLQYPVEKKSSARSTQGTTGIREDPDVCLKAP
modifications: His tag
- Vmax of SHP2-mediated dephosphorylation in the presence of SAP (all three phosphotyrosyl peptides (p60-SRC, SLAMF5, CD3)): unaffected
- increase of Km of SHP2-mediated dephosphorylation in the presence of SAP (substrate phosphorylated CD3 Y142 peptide): 2-3 fold
- increase of Km of SHP2-mediated dephosphorylation in the presence of SAP (substrate phosphorylated SLAMF5 Y279 peptide): 2-3 fold
- inhibition of SHP2-mediated dephosphorylation of the tail of CD28 (substrates CD28 Y173 and CD28 Y190 peptides): predominantly inhibited dephosphorylation of CD28 Y173 over CD28 Y190
